Data: patent US20060094013

T1: peptide p300 [84-93 (S89A)], Q09472
T1 chain: LLRSGASPNL


How the values were obtained:
[1] = target: T1, peptide p300 [84-93 (S89A)], Q09472
[2] = target: GST-Syntide 2 [GST: P08515]
[3] = target: SIK1 substrate mutant (R575A) wherein arginine at position 575 is substituted with alanine
[4] = target: wild-type SIK1 peptide not phosphorylated by PKA (on GST as carrier protein) [GST: P08515]
[5] = target: SIK1 substrate mutant (R574A) wherein arginine at position 574 is substituted with alanine
[6] = target: SIK1 peptide wherein serine at position 577 is substituted with alanine (on GST as carrier protein) [GST: P08515]
Sequence of SIK1 peptide wherein serine at position 577 is substituted with alanine (on GST as carrier protein) [GST: P08515] (P08515 whole entry, looked up): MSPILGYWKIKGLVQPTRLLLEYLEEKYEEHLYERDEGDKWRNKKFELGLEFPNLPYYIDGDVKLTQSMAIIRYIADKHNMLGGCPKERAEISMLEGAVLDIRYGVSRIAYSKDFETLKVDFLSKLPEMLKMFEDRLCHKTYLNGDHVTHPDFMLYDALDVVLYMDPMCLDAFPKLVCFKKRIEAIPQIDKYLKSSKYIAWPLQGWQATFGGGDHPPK

[7] = target: SIK1 substrate mutant (R574/575A) wherein arginines at positions 574 and 575 are substituted with alanines

Sequence of GST-Syntide 2 [GST: P08515] (P08515 whole entry, looked up): as above
Sequence of wild-type SIK1 peptide not phosphorylated by PKA (on GST as carrier protein) [GST: P08515] (P08515 whole entry, looked up): as above

Row | Protein | enzyme activity of SIK (phosphorylation of Syntide 2) [1] | phosphorylation by SIK [1] | protein-phosphorylating activity (32P intake, SDS-PAGE) [2] | phosphorylation of the substrate (32P) [3] | phosphorylation of the substrate (32P) [4] | phosphorylation of the substrate (32P) [5] | phosphorylation of the substrate (32P) [6] | phosphorylation of the substrate (32P) [7]
1 | GST-mSIK2 (protein) MVMADGPRHLQRGPVRVGFYDIEGTLGKGNFAVVKLGRHRTTKTEVAIKIIDKSQLDAVNLEKIYREVQIMKMLDHPHIIKLYQVMETKSMLYLVTEYAKNGEIFDYLANHGRLNESEARRKFWQILSAVDYCHGRKVVHRDLKAENLLLDNNMNIKIADFGFGNFFKTGELLATWCGSPPYAAPEVFEGQQYEGPQLDIWSMGVVLYVLVCGALPFDGPTLPILRQRVLEGRFRIPYFMSEDCEHLIRRMLVLDPSKRLSIAQIKEHKWMLIEVPVQRPILYPQEQENEPSIGEFNEQVLRLMHSLGIDQQKTVESLQNKSYNHFAAIYFLLVERLKSHRSSFPVEQRLDGRQRRPSTIAEQTVAKAQTVGLPVTLHPPNVRLMRSTLLPQASNVEAFSFPTSSCQAEAAFMEEECVDTPKVNGCLLDPVPPVLVRKGCQSLPSSMMETSIDEGLETEGEAEEDPSQAFEAFQATRSGQRRHTLSEVTNQLVVMPGAGKMFSMSDNPSLESVDSEYDMGSAQRDLNFLEDSPSLKDIMLANQPSPRMTSPFISLRPANPAMQALSSQKREAHNRSPVSFREGRRASDTSLTQGIVAFRQHLQNLARTKGILELNKVQLLYEQMGSNADPTLTSTAPQLQDLSSSCPQEEISQQQESVSSLSASMHPQLSPQQSLETQYLQHRLQKPNLLPKAQSPCPVYCKEPPRSLEQQLQEHRLQQKRLFLQKQSQLQAYFNQMQIAESSYPGPSQQLALPHQETPLTSQQPPSFSLTQALSPVLEPSSEQMQFSSFLSQYPEMQLQPLPSTPGPRAPPPLPSQLQQHQQPPPPPPPPPPQQPGAAPTSLQFSYQTCELPSTTSSVPNYPASCHYPVDGAQQSNLTGADCPRSSGLQDTASSYDPLALSELPGLFDCEMVEAVDPQHNGVVSCLARET | the unphosphorylated peptide p300 wherein serine at position 89 is substituted with alanine inhibits the enzyme activity of SIK | a peptide wherein serine at position 89 in p300 is substituted with alanine becomes unphosphorylated | wild-type GST-mSIK2 has an auto-phosphorylating activity and an activity of phosphorylating GST-Syntide 2 | – | – | – | – | –
2 | GST-rat SIK1 (protein) MVIMSEFSAVPTGTGQGQQKPLRVGFYDVERTLGKGNFAVVKLARHRVTKTQVAIKIIDKTRLDSSNLEKIYREVQLMKLLNHPNIIKLYQVMETKDMLYIVTEFAKNGEMFDYLTSNGHLSENEARKKFWQILSAVEYCHNHHIVHRDLKTENLLLDGNMDIKLADFGFGNFYKPGEPLSTWCGSPPYAAPEVFEGKEYEGPQLDIWSLGVVLYVLVCGSLPFDGPNLPTLRQRVLEGRFRIPFFMSQDCETLIRRMLVVDPAKRITIAQIRQHRWMQADPTLLQQDDPAFSMQGYTSNLGDYNEQVLGIMQALGIDRQRTVESLQNSSYNHFAAIYYLLLERLREHRSTQPSSRATPAPARQPQLRNSDLSSLEVPQEILPCDPFRPSLLCPQPQALAQSVLQAEIDCDLHSSLQPLFFPLDTNCSGVFRHRSISPSSLLDTAISEEARQGPSLEEEQEVQEPLPGSTGRRHTLAEVSTHFSPLNPPCIIVSSSAAVSPSEGTSSDSCLPFSASEGPAGLGGGLATPGLLGTSSPVRLASPFLGSQSATPVLQSQAGLGATVLPPVSFQEGRRASDTSLTQGLKAFRQQLRKNARTKGFLGLNKIKGLARQVCQSSIRGSRGGMSTFHTPAPSSGLQGCTASSREGRSLLEEVLHQQRLLQLQHHSAVSSDYQQAPQLSPVPYVLTPCDGLLVSGIPLLPTPLLQPGMSPVASAAQLLDAHLHISAGPVALPTGPLPQCLTRLSPSCDPAGLPQGDCEMEDLTSGQRGTFVLVQ | – | – | GST-rat SIK1 and GST-rat SIK1 (K56M) were subjected to the same experiment. Consequently, the same results were obtained. | the mutant R575A was phosphorylated much more efficiently than the case of the wild-type SIK1 | the wild-type SIK1 was phosphorylated | the mutants S577A, R574A, and R574/575A were not phosphorylated | the mutants S577A, R574A, and R574/575A were not phosphorylated | the mutants S577A, R574A, and R574/575A were not phosphorylated
